B1: Hp3Lp15 (Hp3-SKSC / Lp15) (antibody, V domains shown)
VH: QVQLVQSGAEVKKPGASVKVSCKASGYTFTGYIMNWVRQAPGQGLEWMGLINPYNGGTSYNQQFQDRVTITADESTSTAYMELSSLRSEDTAVYYCARDGYDDGPYTMDYWGQGTLVTVSS
VL: DIQMTQSPSSLSASVGDRVTITCQTSEDIYSFLAWYQQKPGKAPKLLIYNAQTEAQGVPSRFSGSGSGTDFTLTISSLQPEDFATYYCQHHYESPLTFGGGTKVEIKR
notes: also called Hp3Lp15-SKSC
B2: H19L12 (H19-M58 / L12) (antibody, V domains shown)
VH: QVQLVQSGAEVKKPGASVKVSCKASGYTFTGYAMNWVRQAPGQGLEWMGLINPYNGGTDYNPQFQDRVTITADESTSTAYMELSSLRSEDTAVYYCARDGYDDGPYTMDYWGQGTLVTVSS
VL: DIQMTQSPSSLSASVGDRVTITCQTSEDIYSFVAWYQQKPGKAPKLLIYNAQTEAQGVPSRFSGSGSGTDFTLTISSLQPEDFATYYCQHHYDSPLTFGGGTKVEIKR
B3: Lp2 variant of H0L0 (antibody, V domains shown)
VH: QVQLVQSGAEVKKPGASVKVSCKASGYTFTGYIMNWVRQAPGQGLEWMGLINPYNGGTSYNQKFKGRVTITADESTSTAYMELSSLRSEDTAVYYCARDGYDDGPYTMDYWGQGTLVTVSS
VL: DIQMTQSPSSLSASVGDRVTITCRTSEDIYSFLAWYQQKPGKAPKLLIYNAKTLAKGVPSRFSGSGSGTDFTLTISSLQPEDFATYYCQHHYESPLTFGGGTKVEIK
B4: Hp7 variant of H0L0 (antibody, V domains shown)
VH: QVQLVQSGAEVKKPGASVKVSCKASGYTFTGYIMNWVRQAPGQGLEWMGEINPYNGGTSYNQKFKGRVTITADESTSTAYMELSSLRSEDTAVYYCARDGYDDGPYTMDYWGQGTLVTVSS
VL: DIQMTQSPSSLSASVGDRVTITCRTSENIYSFLAWYQQKPGKAPKLLIYNAKTLAKGVPSRFSGSGSGTDFTLTISSLQPEDFATYYCQHHYESPLTFGGGTKVEIK
B5: Lp1 variant of H0L0 (antibody, V domains shown)
VH: QVQLVQSGAEVKKPGASVKVSCKASGYTFTGYIMNWVRQAPGQGLEWMGLINPYNGGTSYNQKFKGRVTITADESTSTAYMELSSLRSEDTAVYYCARDGYDDGPYTMDYWGQGTLVTVSS
VL: DIQMTQSPSSLSASVGDRVTITCQTSENIYSFLAWYQQKPGKAPKLLIYNAKTLAKGVPSRFSGSGSGTDFTLTISSLQPEDFATYYCQHHYESPLTFGGGTKVEIK
B6: Hp13 variant of H0L0 (antibody, V domains shown)
VH: QVQLVQSGAEVKKPGASVKVSCKASGYTFTGYIMNWVRQAPGQGLEWMGLINPYNGGTSYNQKFQDRVTITADESTSTAYMELSSLRSEDTAVYYCARDGYDDGPYTMDYWGQGTLVTVSS
VL: DIQMTQSPSSLSASVGDRVTITCRTSENIYSFLAWYQQKPGKAPKLLIYNAKTLAKGVPSRFSGSGSGTDFTLTISSLQPEDFATYYCQHHYESPLTFGGGTKVEIK
B7: Lp3 variant of H0L0 (antibody, V domains shown)
VH: QVQLVQSGAEVKKPGASVKVSCKASGYTFTGYIMNWVRQAPGQGLEWMGLINPYNGGTSYNQKFKGRVTITADESTSTAYMELSSLRSEDTAVYYCARDGYDDGPYTMDYWGQGTLVTVSS
VL: DIQMTQSPSSLSASVGDRVTITCRTSENIYSFLAWYQQKPGKAPKLLIYDAKTLAKGVPSRFSGSGSGTDFTLTISSLQPEDFATYYCQHHYESPLTFGGGTKVEIK
B8: Lp7 variant of H0L0 (antibody, V domains shown)
VH: QVQLVQSGAEVKKPGASVKVSCKASGYTFTGYIMNWVRQAPGQGLEWMGLINPYNGGTSYNQKFKGRVTITADESTSTAYMELSSLRSEDTAVYYCARDGYDDGPYTMDYWGQGTLVTVSS
VL: DIQMTQSPSSLSASVGDRVTITCRTSENIYSFLAWYQQKPGKAPKLLIYNAKTEAKGVPSRFSGSGSGTDFTLTISSLQPEDFATYYCQHHYESPLTFGGGTKVEIK
B9: Hp5 variant of H0L0 (antibody, V domains shown)
VH: QVQLVQSGAEVKKPGASVKVSCKASGYTFTGYIMNWVQQSPGQGLEWMGLINPYNGGTSYNQKFKGRVTITADESTSTAYMELSSLRSEDTAVYYCARDGYDDGPYTMDYWGQGTLVTVSS
VL: DIQMTQSPSSLSASVGDRVTITCRTSENIYSFLAWYQQKPGKAPKLLIYNAKTLAKGVPSRFSGSGSGTDFTLTISSLQPEDFATYYCQHHYESPLTFGGGTKVEIK
B10: Hp6 variant of H0L0 (antibody, V domains shown)
VH: QVQLVQSGAEVKKPGASVKVSCKASGYTFTGYIMNWVRQAPGQGLEWMGLINPYNGGTSYNDKFKGRVTITADESTSTAYMELSSLRSEDTAVYYCARDGYDDGPYTMDYWGQGTLVTVSS
VL: DIQMTQSPSSLSASVGDRVTITCRTSENIYSFLAWYQQKPGKAPKLLIYNAKTLAKGVPSRFSGSGSGTDFTLTISSLQPEDFATYYCQHHYESPLTFGGGTKVEIK
B11: Lp4 variant of H0L0 (antibody, V domains shown)
VH: QVQLVQSGAEVKKPGASVKVSCKASGYTFTGYIMNWVRQAPGQGLEWMGLINPYNGGTSYNQKFKGRVTITADESTSTAYMELSSLRSEDTAVYYCARDGYDDGPYTMDYWGQGTLVTVSS
VL: DIQMTQSPSSLSASVGDRVTITCRTSENIYSFLAWYQQKPGKAPKLLIYNAQTLAKGVPSRFSGSGSGTDFTLTISSLQPEDFATYYCQHHYESPLTFGGGTKVEIK
B12: Hp8 variant of H0L0 (antibody, V domains shown)
VH: QVQLVQSGAEVKKPGASVKVSCKASGYTFTGYIMNWVRQAPGQGLEWMGLIDPYNGGTSYNQKFKGRVTITADESTSTAYMELSSLRSEDTAVYYCARDGYDDGPYTMDYWGQGTLVTVSS
VL: DIQMTQSPSSLSASVGDRVTITCRTSENIYSFLAWYQQKPGKAPKLLIYNAKTLAKGVPSRFSGSGSGTDFTLTISSLQPEDFATYYCQHHYESPLTFGGGTKVEIK
B13: Hp9 variant of H0L0 (antibody, V domains shown)
VH: QVQLVQSGAEVKKPGASVKVSCKASGYTFTGYIMNWVRQAPGQGLEWMGLINPYNGGTSYNQQFKGRVTITADESTSTAYMELSSLRSEDTAVYYCARDGYDDGPYTMDYWGQGTLVTVSS
VL: DIQMTQSPSSLSASVGDRVTITCRTSENIYSFLAWYQQKPGKAPKLLIYNAKTLAKGVPSRFSGSGSGTDFTLTISSLQPEDFATYYCQHHYESPLTFGGGTKVEIK

Each binder was assayed against T1, rhNR10 (recombinant human NR10) (human, UniProt Q8NI17 20-519, limits assumed) (assay: SPR, Biacore T100; antibody captured on Protein A, rhNR10 as analyte).
T1 construct: also called IL-31 receptor; IL31RA
T1 sequence: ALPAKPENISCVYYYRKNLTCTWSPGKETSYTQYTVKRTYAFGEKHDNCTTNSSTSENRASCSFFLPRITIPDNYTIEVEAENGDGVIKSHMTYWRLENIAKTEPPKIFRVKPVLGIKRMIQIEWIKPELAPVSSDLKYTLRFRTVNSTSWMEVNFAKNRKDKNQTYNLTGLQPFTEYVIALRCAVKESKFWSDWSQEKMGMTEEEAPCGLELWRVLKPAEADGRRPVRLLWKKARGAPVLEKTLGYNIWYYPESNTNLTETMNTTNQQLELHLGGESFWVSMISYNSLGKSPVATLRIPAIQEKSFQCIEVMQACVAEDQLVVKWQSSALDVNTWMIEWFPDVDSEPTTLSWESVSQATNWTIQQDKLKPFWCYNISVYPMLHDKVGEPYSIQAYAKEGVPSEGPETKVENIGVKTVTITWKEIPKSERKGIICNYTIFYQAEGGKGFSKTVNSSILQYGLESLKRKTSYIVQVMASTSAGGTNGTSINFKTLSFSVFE
Description: Kinetic analysis of the antigen-antibody reaction was carried out using Biacore T100 (GE Healthcare Biosciences). The antigen-antibody interaction was measured by immobilizing rec-Protein A (hereinafter Protein A) (ZYMED) onto a sensor chip, capturing an antibody on the immobilized Protein A, and then reacting the antigen as an analyte. Various concentrations of rhNR10 were used as the antigen. The kinetic parameters, association rate constant kₐ (1/Ms) and dissociation rate constant kd (1/s), were calculated from the sensorgrams obtained by the measurement. Then, KD (M) was determined based on the rate constants. Each parameter was determined using Biacore T100 Evaluation Software version 1.1 (GE Healthcare Biosciences).
The running buffer used was HBS-EP+. Each antibody was prepared at 0.25 μg/ml, or prepared so that about 100 RU would bind to Protein A. rhNR10 used as an analyte was prepared at 0, 38.5, 77.0, and 154 nM, or at 0, 19.25, and 77.01 nM using HBS-EP+. In the measurement, first, the antibody solution was captured on Protein A, and an analyte solution was reacted at a flow rate of 20 μL/min for three minutes. Then, the solution was switched to HBS-EP+, and the dissociation phase was measured for five minutes. After measurement of the dissociation phase, the sensor chip was regenerated by washing with 10 mM glycine-HCl (pH 1.5). The obtained sensorgrams were kinetically analyzed using the Biacore-specific data analysis software, Biacore T100 Evaluation Software Version 1.1.
B1 showed a Kd of 3.9 nM, a koff of 0.0016 s⁻¹ and a kon of 420000 M⁻¹ s⁻¹.
With B2 the Kd was 5.1 nM, the koff was 0.0012 s⁻¹ and the kon was 230000 M⁻¹ s⁻¹.

The binders below were run against T2, cytoplasmic domain-lacking human NR10 on CHO cells (hNR10-expressing CHO cells) (human, UniProt Q8NI17 20-553) (assay: FMAT competition on hNR10-expressing CHO cells: antibody titrated against FMAT Blue-labeled hIL-31; FL1 = cell-bound labeled hIL-31; mean±S.D. (n=3)).
T2 construct: also called NR10-expressing cells
T2 sequence: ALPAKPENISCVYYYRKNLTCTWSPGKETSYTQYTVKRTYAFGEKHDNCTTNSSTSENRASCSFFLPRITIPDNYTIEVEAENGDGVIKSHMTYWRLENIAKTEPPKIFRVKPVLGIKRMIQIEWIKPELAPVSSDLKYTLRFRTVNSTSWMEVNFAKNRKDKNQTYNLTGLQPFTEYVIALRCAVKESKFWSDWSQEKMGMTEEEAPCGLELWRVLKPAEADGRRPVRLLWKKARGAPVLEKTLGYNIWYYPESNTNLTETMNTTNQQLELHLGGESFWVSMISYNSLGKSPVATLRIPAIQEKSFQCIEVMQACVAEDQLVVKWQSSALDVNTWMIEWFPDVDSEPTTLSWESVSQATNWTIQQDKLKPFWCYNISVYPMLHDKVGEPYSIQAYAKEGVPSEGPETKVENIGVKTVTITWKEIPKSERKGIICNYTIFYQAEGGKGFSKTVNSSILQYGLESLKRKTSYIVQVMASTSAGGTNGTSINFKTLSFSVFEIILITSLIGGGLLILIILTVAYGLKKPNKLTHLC
Description: Antibodies were assessed for the activity of inhibiting the IL-31/NR10 binding by using hNR10-expressing CHO cells as described below. The chimeric NS22 antibody and NS22_H0L0 (H chain, H0-SKSC/SEQ ID NO: 54; L chain, L0/SEQ ID NO: 56) were diluted at an appropriate concentration using Assay buffer (10 mM HEPES, 140 mM NaCl, 2.5 mM CaCl₂, 3 mM MgCl₂, 2% FBS, 0.01% NaN₃, pH7.4), and further eight serial dilutions were prepared at a common dilution ration of 2. The dilutions were added at 40 μl/well to plates (96-Well FMAT Plates, Applied Biosystems). Then, FMAT Blue-labeled hIL-31 was diluted 400 times with Assay buffer, and added at 20 μl/well. Finally, a cell suspension adjusted to 2.5×10⁵ cells/ml using Assay buffer was added at 40 μl/well (final 1×10⁴ cells/well). Two hours after addition of cells, the fluorescence (FL1) was measured using the 8200 Cellular Detection System (Applied Biosystems).
Each variant was tested for the activity of inhibiting the hIL-31/hNR10 binding by using FMAT. The test was carried out according to the method as described in Example 4.
B3: binds.
B4: binds.
B5: binds.
B6: binds.
B7: binds.
B8: binds.
B9: binds.
B10 was tested, and the “IC50 (read off the curve)” value was roughly 0.1 mg/L.
B11: binds.
B12: binds.
For B13, the “IC50 (read off the curve)” value was roughly 0.1 mg/L.
